Experiments:
[1] = molecular target: human cathepsin K (human) (UniProt P43235)
[2] = molecular target: human cathepsin L (human)
[3] = molecular target: human cathepsin V (human) (UniProt O60911)
[4] = molecular target: human cathepsin K (human) (UniProt P43235); remark: listed apart in the source
[5] = molecular target: human cathepsin K (human) (UniProt P43235); test: enzyme inhibition kinetics (fluorogenic peptide substrate activity assay); inhibitor preincubated with protease 15 min, 37 °C; IC50 from residual velocities, Ki by the Cheng-Prusoff equation; 50 mM sodium acetate pH 5.5, 0.1% polyethylene glycol 1500, 2.5 mM dithiothreitol (cathepsins L, K, V, B, F, C and papain; 50 mM NaCl for cathepsin C)
[6] = molecular target: human cathepsin L (human); test: as above
[7] = molecular target: human cathepsin V (human) (UniProt O60911); test: as above

Chain of human cathepsin K (human) (P43235 115-329): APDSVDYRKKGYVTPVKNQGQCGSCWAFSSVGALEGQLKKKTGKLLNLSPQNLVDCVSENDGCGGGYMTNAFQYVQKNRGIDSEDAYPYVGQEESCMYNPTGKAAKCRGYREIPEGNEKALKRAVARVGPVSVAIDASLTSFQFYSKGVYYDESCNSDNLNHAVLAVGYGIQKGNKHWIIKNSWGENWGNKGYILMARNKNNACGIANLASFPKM
Chain of human cathepsin V (human) (O60911 114-334): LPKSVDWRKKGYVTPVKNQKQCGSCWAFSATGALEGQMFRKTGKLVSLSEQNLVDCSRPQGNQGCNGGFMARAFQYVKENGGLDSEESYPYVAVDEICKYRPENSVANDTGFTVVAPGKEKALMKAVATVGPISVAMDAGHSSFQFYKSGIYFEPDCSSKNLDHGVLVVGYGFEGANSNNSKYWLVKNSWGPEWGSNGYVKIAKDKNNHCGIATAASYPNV

Ir-thyropin (IrThy), recombinant full-length mature protein (natural protein)
% inhibition of cathepsin K activity by IrThy with chondroitin-4-sulfate at 10 µg/mL [1]: 16% | % inhibition of cathepsin K activity by IrThy with chondroitin-6-sulfate at 10 µg/mL [1]: 23% | % inhibition of cathepsin K activity by IrThy, no GAG, pH 5.5 [1]: 50% | change of % inhibition of cathepsin L activity by IrThy with GAGs at 10 µg/mL [2]: < 15% | % inhibition of cathepsin V activity by IrThy, no GAG, pH 5.5 [3]: 25% | reduction of inhibition of cathepsin K activity by IrThy with 0.3 M NaCl, without heparin [4]: 20% | Ki [5]: 56.9 nM | Ki [6]: 201 nM | Ki [7]: 34.7 nM

IrThy-Cd, recombinant C-terminal Tg1 domain of IrThy (domain or fragment)
Ki [5]: 53.1 nM | Ki [6]: 795 nM | Ki [7]: 40.7 nM

— publication PMC10889554
